Source: paper PMC12361444

Biological target: HAdV-C5 hexon protein (human adenovirus C5) (UniProt P04133)
Sequence of UniProt P04133 (P04133 whole entry): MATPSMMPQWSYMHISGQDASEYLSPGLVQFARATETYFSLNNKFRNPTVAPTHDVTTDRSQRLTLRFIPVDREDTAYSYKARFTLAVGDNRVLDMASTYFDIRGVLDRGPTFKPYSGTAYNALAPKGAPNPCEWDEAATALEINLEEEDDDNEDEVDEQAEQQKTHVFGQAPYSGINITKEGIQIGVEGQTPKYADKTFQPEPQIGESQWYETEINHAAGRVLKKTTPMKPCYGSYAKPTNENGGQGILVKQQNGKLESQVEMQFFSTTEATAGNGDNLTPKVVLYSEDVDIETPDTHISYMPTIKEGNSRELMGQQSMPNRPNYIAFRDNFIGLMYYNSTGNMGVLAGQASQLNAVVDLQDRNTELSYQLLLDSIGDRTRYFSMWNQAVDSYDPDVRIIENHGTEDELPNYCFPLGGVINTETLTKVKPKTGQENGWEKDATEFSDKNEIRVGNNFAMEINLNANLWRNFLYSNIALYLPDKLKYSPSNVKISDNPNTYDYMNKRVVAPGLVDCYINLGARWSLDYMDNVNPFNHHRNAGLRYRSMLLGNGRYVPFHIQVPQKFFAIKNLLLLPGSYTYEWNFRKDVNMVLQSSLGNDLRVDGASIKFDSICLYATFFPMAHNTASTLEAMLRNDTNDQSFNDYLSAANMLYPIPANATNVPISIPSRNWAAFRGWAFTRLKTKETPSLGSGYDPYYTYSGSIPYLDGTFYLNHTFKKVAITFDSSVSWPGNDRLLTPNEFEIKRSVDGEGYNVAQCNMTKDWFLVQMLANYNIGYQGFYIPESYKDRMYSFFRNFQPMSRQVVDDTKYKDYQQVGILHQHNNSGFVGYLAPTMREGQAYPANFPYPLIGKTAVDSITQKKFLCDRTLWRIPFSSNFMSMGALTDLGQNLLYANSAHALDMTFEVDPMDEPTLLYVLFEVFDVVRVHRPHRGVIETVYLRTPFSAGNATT

Human lactoferricin 1-49 (peptide)
qPCR of cell-bound HAdV-C5 genomes on myoblasts (5000 vp/cell, 2 µM Lfcin, on ice 30 min), with versus without Lfcin: 20 fold
